Data published in PMC4153629.

Legend:
[1] = molecular target: GH67 α-glucuronidase Agu67A from Caldicellulosiruptor lactoaceticus 6A (Caldicellulosiruptor lactoaceticus 6A); experiment: SEC; Superdex 200 column (33 mL elution volume), 50 mM sodium citrate, 150 mM NaCl, pH 6.0, 0.5 mL/min; apparent Mw from a calibration curve of log (Mw) vs. elution volume; self-association (homodimer)
[2] = molecular target: GH family 10 endo-β-1,4-xylanase Xyn10A from Caldicellulosiruptor lactoaceticus 6A (Caldicellulosiruptor lactoaceticus 6A); experiment: as above

GH67 α-glucuronidase Agu67A from Caldicellulosiruptor lactoaceticus 6A (enzyme)
stoichiometry N [1]: 2

GH family 10 endo-β-1,4-xylanase Xyn10A from Caldicellulosiruptor lactoaceticus 6A (enzyme)
stoichiometry N [2]: 2
